Source: publication PMC9318713, “Exploring the Utility of ssDNA Aptamers Directed against Snake Venom Toxins as New Therapeutics for Snakebite Envenoming”

Legend:
[1] = target: T1, batroxobin (recombinant SVSP) (Bothrops atrox? (printed B. atrox), UniProt P04971 25-255); test: fluorescence bead binding assay; details: protein: recombinant; label: 6-FAM
[2] = target: T2, ancrod (recombinant SVSP) (Calloselasma rhodostoma? (printed C. …, UniProt P26324 1-234)); test: fluorescence bead binding assay; 2 mM Mg2+; Kd: 50 mM Tris-HCl pH 7.5, 150 mM NaCl, 2 mM MgCl2, RT, 1 h, toxin on Sepharose beads; ALISA: 100 ng toxin coated, aptamer in nuclease-free water, RT, 2 h, PBST; details: protein: recombinant; label: 6-FAM (Kd); HRP (ALISA)
T2 sequence: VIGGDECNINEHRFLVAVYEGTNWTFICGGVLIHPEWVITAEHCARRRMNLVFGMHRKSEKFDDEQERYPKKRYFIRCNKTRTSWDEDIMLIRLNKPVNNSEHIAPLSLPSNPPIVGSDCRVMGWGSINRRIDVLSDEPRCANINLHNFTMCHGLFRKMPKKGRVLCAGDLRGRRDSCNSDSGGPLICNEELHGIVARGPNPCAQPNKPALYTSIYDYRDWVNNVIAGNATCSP

[3] = target: T2, ancrod (recombinant SVSP); test: fluorescence bead binding assay; 2 mM Mg2+; Kd only in figure, within 3.0-17.8 nM; Kd: 50 mM Tris-HCl pH 7.5, 150 mM NaCl, 2 mM MgCl2, RT, 1 h, toxin on Sepharose beads; ALISA: 100 ng toxin coated, aptamer in nuclease-free water, RT, 2 h, PBST; details: protein: recombinant; label: 6-FAM
[4] = target: T1, batroxobin (recombinant SVSP); test: fluorescence bead binding assay; 2 mM Mg2+; details: protein: recombinant; label: 6-FAM (Kd); HRP (ALISA)

T1 sequence (P04971 25-255): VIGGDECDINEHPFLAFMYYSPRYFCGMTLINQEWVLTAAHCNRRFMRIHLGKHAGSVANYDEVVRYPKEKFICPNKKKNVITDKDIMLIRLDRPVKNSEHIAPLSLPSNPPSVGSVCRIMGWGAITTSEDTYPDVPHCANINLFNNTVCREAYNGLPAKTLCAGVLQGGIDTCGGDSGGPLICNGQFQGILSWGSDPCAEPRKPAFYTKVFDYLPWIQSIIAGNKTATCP

Binder	binding result [1]	binding result [3]	other results
TAGTAACAGGTCTGCTTAGGCTTGCGAGGAGTACTAGTAT (ssDNA) [batroxobin-5]	binds	–	–
GGACCGACCCTTTAGCATTTATGACCCTTGTCATCGGGCT (ssDNA) [ancrod-55]	–	–	Kd [2]: 3 nM
TAGCATGGGTGGTCAATTTAAGTACAGTGTCGTGCTCACT (ssDNA) [ancrod-7]	–	binds	–
AGGTCCTATTGTATACAGGGAGCCCTCGGTCTTGCTGTGA (ssDNA) [batroxobin-29]	binds	–	–
TGTCTGGTATGCAAAGGACTGCTGTACTGTTAGCTTTTGT (ssDNA) [batroxobin-26]	–	–	Kd [4]: 4.7 nM
TGGTCTAAGGACTGCTTAGGATTGCGATATGGTCCAGATG (ssDNA) [ancrod-11]	–	binds	–
